Measurements: publication PMC10522771, “The C-terminal transactivation domain of MITF interacts promiscuously with co-activator CBP/p300” (Scientific Reports, 2023)

T1: MITF_(CTERM) (UniProt O75030-9 289-419)
T1 construct: numbers count on: the MITF-M isoform; 15N-labelled for the NMR titration; also called C-terminal MITF-M; MITF C-terminal region; source: E. coli BL21 (DE3), purified (Ni-NTA, TEV cleavage, Q-Sepharose)
T1 sequence (looked up): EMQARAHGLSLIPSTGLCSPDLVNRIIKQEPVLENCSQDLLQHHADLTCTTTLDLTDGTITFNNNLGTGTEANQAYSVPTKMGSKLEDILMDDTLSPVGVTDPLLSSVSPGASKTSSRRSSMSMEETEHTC

T2: MITF_(ΔThr-rich) (UniProt O75030-9 289-419, Δ334–345)
T2 construct: numbers count on: the MITF-M isoform; The methods print Δ334–354; the legend, the results and the canonical numbers (Δ441–452) give Δ334–345; also called Δ334–345; deletion of the threonine-rich region; source: E. coli BL21 (DE3), purified (Ni-NTA, TEV cleavage, Q-Sepharose)
T2 sequence (looked up): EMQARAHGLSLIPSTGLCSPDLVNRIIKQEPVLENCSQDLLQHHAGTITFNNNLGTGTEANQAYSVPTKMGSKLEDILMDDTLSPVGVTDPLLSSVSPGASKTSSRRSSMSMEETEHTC

T3: MITF_(ΔAcidic) (UniProt O75030-9 289-419, Δ372–381)
T3 construct: numbers count on: the MITF-M isoform; also called Δ372–381; deletion of the acidic region; source: E. coli BL21 (DE3), purified (Ni-NTA, TEV cleavage, Q-Sepharose)
T3 sequence (looked up): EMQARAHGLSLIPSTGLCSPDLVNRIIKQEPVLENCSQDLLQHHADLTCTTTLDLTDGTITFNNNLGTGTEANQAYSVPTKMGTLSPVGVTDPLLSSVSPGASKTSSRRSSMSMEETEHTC

T4: MITF_(ΔSer-rich) (UniProt O75030-9 289-419, Δ394–411)
T4 construct: numbers count on: the MITF-M isoform; The methods print Δ372–381 for this variant too; the legend, the results and the canonical numbers (Δ501–518) give Δ394–411; also called Δ394–411; deletion of the serine-rich region; source: E. coli BL21 (DE3), purified (Ni-NTA, TEV cleavage, Q-Sepharose)
T4 sequence (looked up): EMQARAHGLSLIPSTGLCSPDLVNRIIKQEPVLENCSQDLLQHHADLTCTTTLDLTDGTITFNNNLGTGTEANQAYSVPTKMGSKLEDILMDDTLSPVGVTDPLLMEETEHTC


Legend:
Assay in all cases: ITC; 400 µM TAZ1 or TAZ2 in the syringe injected into 16–30 µM MITF construct in the cell; 20 mM TRIS pH 8, 25 mM NaCl, 5 mM βME, 10 µM ZnCl2; 30 °C; single-binding-site fit; duplicate
Details in all cases: both partners purified
MITF_(CTERM) = molecular target: T1, MITF_(CTERM)
MITF_(ΔThr-rich) = molecular target: T2, MITF_(ΔThr-rich)
MITF_(ΔAcidic) = molecular target: T3, MITF_(ΔAcidic)
MITF_(ΔSer-rich) = molecular target: T4, MITF_(ΔSer-rich)

Row | Kd (MITF_(CTERM)) [µM] | Kd (MITF_(ΔThr-rich)) [µM] | Kd (MITF_(ΔAcidic)) [µM] | Kd (MITF_(ΔSer-rich)) [µM] | Binder
1 | 5 ± 0.31 |  |  |  | TAZ1 domain of CBP/p300 (domain or fragment, three structural Zn2+ ions expected; the paper does not state CBP or p300, species or limits (described in a cited paper); mouse CBP TAZ1 340-439 taken by convention) not shown
2 | 0.76 ± 0.05 | 0.41 ± 0.02 | 7.24 ± 0.7 | 2.26 ± 0.09 | TAZ2 domain of CBP/p300 (domain or fragment) GDSRRLSIQRCIQSLVHACQCRNANCSLPSCQKMKRVVQHTKGCKRKTNGGCPICKQLIALCCYHAKHCQENKCPVPFCLNI
